Experimental data as given in patent US20130202591A1 (ANAPTYSBIO, published 2013).
Residue numbers refer to the chain shown, from its start.

B1: APE755-1574/773 (antibody, V domains shown)
VH: EVQLVESGGGLVQPGGSLRLSCAASGFTFSNHWMNWVRQTPGKGLEWVAAINEDGSEKYYVGSVKVRFTISRDNAKNSLYLQMNSLRVEDTAVYYCARDYYDILTRDYYDILTDYYIHYWYFDLWGRGTLVTVSS
VL: not shown
notes: Human IgG (detected with anti-human IgG)
B2: APE744-1266/1540 (antibody, V domains shown)
VH: EVQLVESGGGLVQPGGSLRLSCAASGFTFSNHWMNWVRQTPGKGLEWVAAINEDGSEKYYVGSVKVRFTISRDNAKNSLYLQMNSLRVEDTAVYYCVRDYYDILTDYYIHYWYFDLWGRGTLVTVSS
VL: not shown
notes: as for B1
B3: APE499-1332/773 (antibody, V domains shown)
VH: B2 VH with T69I, V97A
VL: not shown
notes: as for B1
B4: APE470-1150/773 (antibody, V domains shown)
VH: B2 VH with N31D, H32F, N35D, T40A, A50N, N52K, G62D, V66G, V88A, V97A
VL: not shown
notes: as for B1
B5: APE422-1141/773 (antibody, V domains shown)
VH: B2 VH with V97A
VL: not shown
notes: as for B1
B6: APE321-844/773 (antibody, V domains shown)
VH: EVQLVESGGGLVQPGGSLRLSCAASGFTFSSYWMSWVRQAPGKGLEWVASIKQDGSEKYYVDSVKGRFTISRDNAKNSLYLQMNSLRAEDTAVYYCARDYYDILTDYYIHYWYFDLWGRGTLVTVSS
VL: not shown
notes: Human IgG; also called Well 12
B7: APE508-1266/773 (antibody, V domains shown)
VH: B2 VH
VL: not shown
notes: as for B1
B8: APE265-817/773 (antibody, V domains shown)
VH: B2 VH with T40A, V66G, V97A
VL: not shown
notes: also called Well 11
B9: APE545-1346/773 (antibody, V domains shown)
VH: B2 VH with N31S, N35S, A50S, N52K, T69I, V97A
VL: not shown
notes: as for B1
B10: APE498-1330/773 (antibody, V domains shown)
VH: B2 VH with V97T
VL: not shown
notes: as for B1
B11: APE490-1263/773 (antibody, V domains shown)
VH: B2 VH with N31D, H32F, N35D, A50S, N52K, V97A
VL: not shown
notes: as for B1
B12: APE860-1723/773 (antibody, V domains shown)
VH: B2 VH with S30N
VL: not shown
notes: as for B1
B13: APE480-1261/773 (antibody, V domains shown)
VH: B6 VH with S31D, Y32F, S35D, A40T, Q53E, G66V
VL: not shown
notes: as for B1
B14: 546/773 (antibody, V domains shown)
VH: B6 VH with S50N
VL: not shown
notes: IgG captured by anti-human Fc; also called Well 9
B15: antibody with heavy chain SEQ ID NO: 6 and light chain SEQ ID NO: 27 (antibody, V domains shown)
VH: B6 VH
VL: not shown
notes: IgG captured by anti-human Fc; also called Well 20
B16: antibody with heavy chain SEQ ID NO: 30 and light chain SEQ ID NO: 24 (antibody, V domains shown)
VH: B2 VH with H32Y, T40A, E53Q, V66G
VL: not shown
notes: IgG captured by anti-human Fc; also called Well 8
B17: antibody with heavy chain SEQ ID NO: 2 and light chain SEQ ID NO: 29 (antibody, V domains shown)
VH: B6 VH with Y32H, S50N, Q53E
VL: not shown
notes: IgG captured by anti-human Fc; also called Well 3
B18: antibody with heavy chain SEQ ID NO: 4 and light chain SEQ ID NO: 29 (antibody, V domains shown)
VH: B2 VH with T40A, V66G, V97A
VL: not shown
notes: IgG captured by anti-human Fc; also called Well 4
B19: antibody with heavy chain SEQ ID NO: 1 and light chain SEQ ID NO: 29 (antibody, V domains shown)
VH: B6 VH with S50N
VL: not shown
notes: IgG captured by anti-human Fc; also called Well 2
B20: antibody with heavy chain SEQ ID NO: 9 and light chain SEQ ID NO: 29 (antibody, V domains shown)
VH: B2 VH with H32Y, T40A, A50S, E53Q, V66G
VL: not shown
notes: IgG captured by anti-human Fc; also called Well 7
B21: 843/773 (antibody, V domains shown)
VH: B2 VH with H32Y, T40A, A50S, E53Q, V66G
VL: not shown
notes: IgG captured by anti-human Fc; also called Well 14
B22: antibody with heavy chain SEQ ID NO: 30 and light chain SEQ ID NO: 25 (antibody, V domains shown)
VH: B2 VH with H32Y, T40A, E53Q, V66G
VL: not shown
notes: IgG captured by anti-human Fc; also called Well 15

These binders were tested against T1, human IL-17 (human, UniProt Q16552 24-155) (assay: KINEXA 3000, solution equilibrium, free antibody captured on human IL-17a beads).
T1 construct: also called hIL-17; IL-17A

Row | Kd [nM] | Binder
1 | 0.0049 | B1
2 | 0.875 | B2
3 | 0.092 | B3
4 | 6.9 | B4
5 | 0.067 | B5
6 | 9.4 | B6
7 | 0.043 | B7
8 | 0.322 | B8
9 | 0.27 | B9
10 | 0.126 | B10
11 | 0.948 | B11
12 | 0.049 | B12
13 | 1.2 | B13

The binders below were run against T2, IL-17 antigen (APE349) linked to wasabi fluorescent protein (WFP) (labeled with Eu3+-TBP-NHS Cryptate) (assay: HTRF competition against the labelled second reference antibody).
T2 construct: also called labeled antigen

Row | binding result | Binder
14 | binds | B7

These binders were tested against T1, human IL-17 (assay: SPR (BIACORE A100), IgG from transfection supernatant captured by anti-human Fc on CM5 chip, human IL-17 flowed over; 1:1 model with mass transport).

Row | Kd [nM] | Binder
15 | > 10 | B14
16 | > 10 | B15
17 | < 1 | B16
18 | > 10 | B17
19 | < 1 | B18
20 | > 10 | B19
21 | < 1 | B6
22 | < 1 | B8
23 | > 10 | B20
24 | < 1 | B21
25 | < 1 | B22

Each binder was assayed against T3, human Myc-IL-17a (APE280) (human, UniProt Q16552 24-155, limits assumed) (assay: competition ELISA: plate coated with myc-IL-17a (APE280), antibody titrated against biotinylated IL-17RA (sheet: 2.1 nM, overnight incubation), bound IL-17RA detected with avidin-HRP, OD450 as % of no antibody).
T3 construct: not shown: Myc tag

Row | IC50 [nM] | Binder
26 | 0.34 | B1
27 | 1.6 | B7

Each binder was assayed against T3, human Myc-IL-17a (APE280) (assay: competition ELISA, plate-coated myc-IL-17a, biotinylated IL-17RA as competitor, IC50 comparison).

Row | fold potency in blocking IL-17/IL-17RA interaction against the first reference anti-IL-17a antibody [fold] | Binder
28 | 40 | B1

Each binder was assayed against T1, human IL-17 (assay: Average KINEXA values).

Row | koff [s⁻¹] | kon [M⁻¹ s⁻¹] | Binder
29 | 5.9e-06 | 1.2e+06 | B1
30 | 2.4e-05 | 360000 | B5
31 | 1.8e-05 | 418000 | B7

What follows are binders tested against T1, human IL-17 (assay: cell-based or functional assay).

Row | IL-6 and IL-8 release from IL-17-stimulated primary human RA synovial fibroblasts, potency against the reference anti-IL-17a antibodies [fold] | Binder
32 | 5 | B1

Each binder was assayed against T3, human Myc-IL-17a (APE280) (assay: cell-based or functional assay).

Row | IL-8 release from human IL-17-stimulated cell lines, potency against the first reference anti-IL17a antibody [fold] | Binder
33 | 2 | B1
